Data published in US20110288036A1 (published 2011).
Where no end group is shown, it is not given here.

Columns and labels:
Experiment in all cases: cell-based or functional assay
[1] = target: JNK (c-Jun N-terminal Kinase)
[2] = target: T1, MKK4 (Mitogen-Activated Protein Kinase Kinase 4) (UniProt P45985 1-399)
T1 sequence: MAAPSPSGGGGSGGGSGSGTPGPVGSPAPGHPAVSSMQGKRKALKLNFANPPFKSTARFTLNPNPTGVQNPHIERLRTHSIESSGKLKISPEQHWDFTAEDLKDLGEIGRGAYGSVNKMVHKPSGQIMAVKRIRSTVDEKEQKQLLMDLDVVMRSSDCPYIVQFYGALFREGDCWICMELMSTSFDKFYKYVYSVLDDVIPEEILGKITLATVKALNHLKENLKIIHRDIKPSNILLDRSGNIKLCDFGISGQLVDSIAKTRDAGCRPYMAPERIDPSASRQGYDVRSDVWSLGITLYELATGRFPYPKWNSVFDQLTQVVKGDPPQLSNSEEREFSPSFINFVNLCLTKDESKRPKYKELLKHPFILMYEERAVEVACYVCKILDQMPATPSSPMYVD

[3] = target: T2, MKK6 (Mitogen-Activated Protein Kinase Kinase) (UniProt P52564 1-334)
T2 sequence: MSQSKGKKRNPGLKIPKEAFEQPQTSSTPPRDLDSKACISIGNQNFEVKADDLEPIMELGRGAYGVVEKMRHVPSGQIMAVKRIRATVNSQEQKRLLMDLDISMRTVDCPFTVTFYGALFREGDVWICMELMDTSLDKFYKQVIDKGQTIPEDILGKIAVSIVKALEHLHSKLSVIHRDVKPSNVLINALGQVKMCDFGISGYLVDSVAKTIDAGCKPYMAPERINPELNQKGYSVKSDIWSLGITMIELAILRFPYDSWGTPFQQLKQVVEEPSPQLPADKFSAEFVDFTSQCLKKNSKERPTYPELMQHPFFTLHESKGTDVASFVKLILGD

MEK1 = MEK1 (UniProt Q02750 1-393)
[4] = target: T3, PRAK (p38-Regulated/Activated Protein Kinase) (UniProt Q8IW41 1-473)
T3 sequence: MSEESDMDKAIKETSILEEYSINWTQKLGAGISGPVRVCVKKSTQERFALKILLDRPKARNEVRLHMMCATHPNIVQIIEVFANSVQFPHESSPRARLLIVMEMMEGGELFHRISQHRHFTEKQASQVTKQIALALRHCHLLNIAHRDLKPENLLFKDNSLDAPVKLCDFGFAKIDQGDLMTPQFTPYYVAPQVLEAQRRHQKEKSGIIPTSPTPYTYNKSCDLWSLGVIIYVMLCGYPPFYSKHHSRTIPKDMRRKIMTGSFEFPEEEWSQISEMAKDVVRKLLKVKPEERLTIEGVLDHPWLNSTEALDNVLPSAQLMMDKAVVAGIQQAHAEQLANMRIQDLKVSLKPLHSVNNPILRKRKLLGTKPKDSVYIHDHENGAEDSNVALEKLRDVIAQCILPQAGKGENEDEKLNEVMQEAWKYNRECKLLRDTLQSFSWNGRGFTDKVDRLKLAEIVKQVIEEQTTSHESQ

[5] = target: p38 MAPK (p38 Mitogen-Activated Protein Kinase)

B1: MMI-0100 (YARAAARQARAKALARQLGVAA; SEQ ID NO: 1) (peptide)
peptide: YARAAARQARAKALARQLGVAA
modifications: not fully specified (C-terminus)
**Q.** Which results are given for B1?
**A.** Percent Activity (radiometric kinase assay, 100 µM peptide) [1]: 92 percent activity; Percent Activity (radiometric kinase assay, 100 µM peptide) [2]: 90 percent activity; Percent Activity (radiometric kinase assay, 100 µM peptide) [3]: 50 percent activity; Percent Activity (radiometric kinase assay, 100 µM peptide) (MEK1): 68 percent activity; Percent Activity (radiometric kinase assay, 100 µM peptide) [4]: 100 percent activity; Percent Activity (radiometric kinase assay, 100 µM peptide) [5]: 60 percent activity
